Patent publication US20140295495A1 (Biogen, published 2014)

T1: human antigen that binds to mAb1 (human, UniProt Q96FE5 42-538, limits assumed)
T1 sequence (looked up): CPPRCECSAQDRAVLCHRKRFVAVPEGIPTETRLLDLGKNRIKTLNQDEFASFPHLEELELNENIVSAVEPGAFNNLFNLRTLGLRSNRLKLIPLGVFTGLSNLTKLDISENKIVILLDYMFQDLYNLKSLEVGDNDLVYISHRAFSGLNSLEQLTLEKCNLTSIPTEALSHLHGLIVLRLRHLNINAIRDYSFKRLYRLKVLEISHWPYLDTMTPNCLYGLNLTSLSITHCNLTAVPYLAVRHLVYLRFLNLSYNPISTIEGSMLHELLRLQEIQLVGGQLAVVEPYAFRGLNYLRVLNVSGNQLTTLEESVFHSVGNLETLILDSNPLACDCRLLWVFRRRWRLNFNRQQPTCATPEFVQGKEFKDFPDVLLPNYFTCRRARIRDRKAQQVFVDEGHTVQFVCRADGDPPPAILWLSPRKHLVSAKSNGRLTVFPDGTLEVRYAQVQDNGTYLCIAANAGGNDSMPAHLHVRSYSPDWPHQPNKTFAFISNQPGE

B1: mAb1-C (mAb1, anti-LINGO-1 antibody Li81, aglycosyl human IgG1; preparation with 39% trisulfide at the LC5-HC5 linkage) (antibody, V domains shown)
VH: EVQLLESGGGLVQPGGSLRLSCAASGFTFSAYEMKWVRQAPGKGLEWVSVIGPSGGFTFYADSVKGRFTISRDNSKNTLYLQMNSLRAEDTAVYYCATEGDNDAFDIWGQGTTVTVSS
VL: DIQMTQSPATLSLSPGERATLSCRASQSVSSYLAWYQQKPGQAPRLLIYDASNRATGIPARFSGSGSGTDFTLTISSLEPEDFAVYYCQQRSNWPMYTFGQGTKLEIK
modifications: 39% trisulfide at the LC5-HC5 linkage (heavy-light interchain Cys linkage)
B2: mAb1-A (mAb1, anti-LINGO-1 antibody Li81, aglycosyl human IgG1; preparation with about 0.5% trisulfide at the LC5-HC5 linkage) (antibody, V domains shown)
VH: B1 VH
VL: B1 VL
modifications: about 0.5% trisulfide at the LC5-HC5 linkage (heavy-light interchain Cys linkage)
notes: also called mAb-A

Target: T1, human antigen that binds to mAb1
Test: direct binding ELISA, antigen coated on the plate, detection with AP-anti-human Fab
Procedure: Plates were washed 3 times with 350 μL of PBS using a plate washer and blocked with 1% BSA, 0.1% ovalbumin, and 0.1% non-fat dry milk in Hank's balanced salt buffer containing 25 mM HEPES (pH 7.0) for 1 hour at room temperature. Plates were then washed again, and incubated for 1 h with a 3-fold dilution series set up for each test compound (50 μL/well, 8 dilutions) starting at 10 μg/mL and all in 0.1% BSA, 0.1% ovalbumin, and 0.1% non-fat dry milk in Hank's balanced salt buffer containing 25 mM HEPES (pH 7.0), and again washed. […] Plates were read at 405 nm on a Molecular Devices plate reader. EC₅₀ values for binding were calculated from the titration curve using prism software.

Row | Binder | EC50 [pM]
1 | B1 | 20
2 | B2 | 20
